Experimental findings from US20040077017A1 are described below.

For the assay, the target named is Fc3(1) (human) (UniProt P01860). Briefly: Biacore 2000 SPR, Fc3(1) immobilized on CM5 chip, 25 C, HBS.

As a reminder, the Kd is a measure of binding affinity in units of concentration. Low values mean tighter binding, high ones weaker binding. On to “unlabeled, wild-type Z-ABD (from UniProt P19909 254-299) (designed binder)”, for which the Kd stood at 90 nM.
